Laboratory results: the nanobody polyreactivity screen of Harvey et al. (2022)

Assay: yeast display, Sf9 membrane polyspecificity reagent, FACS + sequencing; frameworks hold sequencing errors
In short: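 Galactose-induced (36–48 hours) yeast carrying a synthetic nanobody display library were exposed to 10% biotinylated, detergent-solubilized Sf9 membrane reagent at 4 °C for 1 hour. FACS followed streptavidin microbead enrichment, using low and high (top ~1%) gates for expression (anti-HA) and reagent binding (streptavidin). Colony PCR, MiSeq 2 × 250 sequencing and CDR-length filtering followed. Labels for polyreactivity reflect the gate of origin.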

| Sequence | polyreactivity (PSR sort gate) |
| --- | --- |
| QVQLVESGGGLVQAGGSLRLTCAASGGTFYANAMGWYRQAPGTERELVAAITSGGSTNYADSVKGRFTISRDNAKNTVYLQMNSLKPEDTAVYYCNAAAQRRYWHSYFRRYDYWGQGTQVTVSS | low polyreactivity |
| QVQLVESGGGLVQAGGSLRLSCAASGRTLYPYAMGWYRQAPGKERELVAAISSTGGRTYYADSVKGRFTISRDNAKNTVYLQMNSLKPEDTAVYYCAAIYRAQYDYWGQGTQVTVSS | high polyreactivity |
| QVQLVESGGGLVQAGGSLRLSCAASGSTFYGYAMGWYRQAPGKERELVAAITLIGTSTYYADSVKCRFTISRDNAKNTVYLQMNSLKPEDTAVYYCAAEISYGYGYWGQGTQVTVSS | low polyreactivity |
| QVQLVESGGGLVQAGGSLRLSCAASGSIFLPNAMGWYRQAPGKERELVAVITGGGSTKYADSVKGRFTISRDNAKNTVYLQMNSLKPEDTAVYYCNAQSPVDPSCDYWGRGTQVTVSS | low polyreactivity |
| QVQLVEAGGGLVQAGGSLRLSCAASGRTFSFNAMGCYRQAPGKERELVAAISRRGTSTYYADSVKGRFTISRDNAKNSVYLQMNSLKPEYTAVYYCAARSTYTRREYDYWGQGTQVTVSS | high polyreactivity |
| QVQLVESGGGLVQAGGSLRLSCAASGSIFLQYAMGWYRQAPGKERELVAAITTSGRTYYADSVKGRFTISRDNAKYTVYLQMNSLKPEDTAVYYCAATWRYGYYAYYYWGQGTQVTVSS | high polyreactivity |
| QVQLEESGGGLVQAGGSLRLICAASAMGRYRQAPGKERELVAVINSTGGSTYYADSVKGRFTISRDNAKNTVYLQMYSLKPDDTAVYYCARVTRRGPGYTTLYCRYDYWGQGTQVTVSS | low polyreactivity |
| QVQLVESGGGLVQAGGSLRLSCAASGITFIVNTMGWYRQAPGKEREFVATISANSDGTYYADSVKGRFTISRDIAKNTVYLQKNSLKPEDTAVYYWGQGTQVTVSS | low polyreactivity |
| QVQLVESGGCLVQAGGSLRLSCAASGITFRYYAMGWYRQAPGKERELVATISYSGGTTYYAESVKGRFTISRDNAKNTVYLQMNSLKPEDTAVYYCKAVYRYKYGYRDYDYWGQGSQVTVSS | high polyreactivity |
| QFQLVESGGGLVQAGGSLRLSCAASGGTFYVNDMGWYRQAPGKERELVATITYSGTSTYYADSVKGRFTISRDNAKNTVYLQMNSLKPEDTAVYYCATDVLLYFEPVNLDYWGQGTQVTVSS | low polyreactivity |
| QVKLVESGGGLVQAGGSLRLSFPASGRTFKYYAMGLYRQEPGKDRELVAAISWSGGSTYYADSVKGRFTISRDNEKNTVYLQMNSLKPEDTAVYYCAAVRHYHGTWYDYWGQGTQVTVSS | high polyreactivity |
| QVQLVESGGGLVQAGGSLRLSCAASGSTFQNYAMGWYIQAPGKERELVAAIRGNGGITYYADSVKGRFTISRDNAKNTVYLQMNSLKPEDTAVYYFAVRSAWVYGIRRDYWGQGTQVTVSS | high polyreactivity |
| QVQLVESGGGLVQAGGSLRLSCAASGRTFSRYAMGWYRPAPGKERELVAAISWRGSSTYYADSVKGRFTISRDNAKNTVYLQMNSLKPEYTAVYYCNTVTYPYVPALFDYWGQGTQVTVSS | high polyreactivity |
| QVQLVESGGGLVQAGGSLRLSCAASGRTFYFYTMGWYRQAPGKERELVAAITSGGSTNYADSVKGRFTISRDNAKNTVYLQMNSLKPEDTAVYYCAAAYWRPGVRFFGPYDYWGQGTQVTVSS | high polyreactivity |
| QVQLVESGGGLVQAGGSLRLSCAASGRTFWGYTMGWYRQAPGKERELVAAITASGGSTRYADSVKGRFTISRDNAKNTVYLQMNSLKPEDTAVYYCASRGQYFTDYYYRGNYWGQGTQVTVSS | high polyreactivity |
| QVQLVESGGGLVQAGGSLRLSCAASGRIFWGNAMGWYRQAPGKEWELVAAITRRGGTTFYADSVKGRFTISRDNAKNTVYLQMNSLKPEDTAVYYCAARRYGQYDGYDSWGQGTQVTVSS | high polyreactivity |
| QVQLVESGGGLVQAGGSLRLSCAASGITFYYYAMGWYRQAPGKERELVAAISRSGGSTYYADSVKGRFTISRDNAKNTVYLQMNSLKPEDTAVYYCANRKGGTLYNYWGQGTQVTVSS | high polyreactivity |
| EVQLVESGGGLVQAGGSLRLSCAASGSIFYTNTMGWYRQAPGKERELVATGSTYYADSVKGRFTISRDNAKNTVYLQMNSLKPEDTAVYYCAKRGDFLTTRYESGSAASDYWGQGTQVTVSS | low polyreactivity |
| QVQLVESGGGLVQAGGSLRLSCAASGRIFDWNAMGWYRQAPGKERELVAAISYSDGSTYYADSVKGRFTISRDNAKNTVYLQMNSLKREDTAVYYCDADFYDRTYITWYEYWGQGTQVTVSS | high polyreactivity |
| QVQLVESGGGLVQAGGSLRLSCAASGYTFNKNTMGWYRQAPGKERELVAAISSSGGRTYYADSVKGRFTISRDNAKNTVYLQMNSLKPEDTAVYYCAARGYFKIHEYDYWGQGTQVTVSS | high polyreactivity |
| QVQLVESGGGLVQAGGSLRLSCAASGSTFRPYAMGWYRPAPGKEREFVASISNTGGSTSYADSVKGRFTISRDNAMNTVYFQMNSLKPEDTAVYYCAARFGYRPWYRMDYWGQGTQVAVSS | high polyreactivity |

| Sequence | polyreactivity (PSR sort gate) |
| --- | --- |
| QVQLVESGGGLVQAGGSLRLSCAASGRIFWQYAMGWYRQAPGNERELVAGITSNGGSTYYADSVKGRFTISRDNAKNTVYLQMNSLKPEDTAVYYCNKVRPGWTYEYGYWGQGTQVTVSS | high polyreactivity |
| QVQLVESGGGLVQAGGSLRLSCAASGRIFSWNAMGWYRQAPGKERELVAAISSGGSTIYADSVKGRFTISRDNAKNTVYLQMNSLKPEYTAVYYCATRNGYSGTYGYWGQGTQVTVSS | low polyreactivity |
| QVQLVESGGGLVQAGGSLRLSCAASGYTFRYYGMGWYRQAPGKERELVADINSNGVRTYYADSVKGRFTISRDNAKNTVYLQMNSLKPEDTAVYYCNKDWGRYRYDYWGQGTQVNVSS | high polyreactivity |
| QVQLVESGGGLVQAGGSLRLSCAASGRISRTNAMGWYRQAPGKERELVATITRGGNTNYADSVKGRFTISRDNAKNTVYLQMNSLKPEDTAVYYCAALGRYLRTYRGYVWQFDSWGQGTQVTVSS | high polyreactivity |
| QVQLGESGGGLVQAGGSLRLSCAASGRTFDKNAMGWYRQAPGKERELVATISSGGSTYYADSVKGRFTISRDNAKNTVYLQMNSLKPEDTAVYYCNARGVRATRRRYGYWGQGTQVTVSS | low polyreactivity |
| QVQLVESGGGLVQAGGSLRLSCAASGRTFAGNAMGWYRQAPGKEREFVASITASGVNTYYADSVKGRFTISRDNAKNTVYLQMNSLKPEDTAVYYCNKRNRWTPFYTYEYWGQGTQVTVSS | low polyreactivity |
| QVQLVESGGGLVQAGGSLRLSCAASGFTFGYYGMGWYRQATGKEMELVAAIDCSGASTYYADSVKGRFTISRDNAKNTVDLQINSLKPEDSAVYYCNADRYLYSLYTYEYDYWGHGTQVTVSS | low polyreactivity |
| QVQLVESGGGLVQAGGSLRLSCAASGGISLRYAMGWYRQAPGKERELVAVIDFSGASTYYADSVKGRFTISRDNAKNTVYLQMNSLKPEDTAVYYCAADSHYQDDFRIQYDYWGQGTQVTVSS | low polyreactivity |
| QVQHVESGGGLVQAGGSLRLSCAASGRTFRRYAMGWYRQAPGKERELVAVITTGSTYYADSVKGRFTISRDNAKNTVYLQMNSLKPEDTALYYCAADFYRATARYEMDYWGQGTQVTVSS | high polyreactivity |
| QVQLLESGGGLDQAGGSLRLSCAAYGRIFGPNAMGWYRQAPGKERELVAAISWSGGTTRYADSVKGRFTISRDNAKNSVYLQMNSQKPEDTAVYYCAASADDRRSGKRYDSWGHGTQVTVSS | high polyreactivity |
| QVQLVESGGGLVQAGGSIRLSCAASGRIFGAYAIGWYRQAPGKERELVADIRTTGSTNYADSVKGRFTISRDNAKNTVYLQMNSLKPEDTAVYYCAARWRSRRFGSGFEYWGQGTQVTVSS | high polyreactivity |
| QVQLVESGGGFVQAGGSLRLSCAASGFTFWRYTMGWYRQAPGKERELVAAINWSGGRTYYADSVKARFTISRDNAKNTVYLQMNSLTPEDTAVYYCATGYSTSVGGSQGDSWGQGTQVTVSS | high polyreactivity |
| QVQLVESGGGLVQAGGSLRLSCAASGITFVSNGMGWYRTAPGKERELVAAITRSGGSTYYADSVKGRFTISRDNAKNTVYLQMNSLKPEDTAVYYCNARTSRYRRGGDSWGQGTQVTVSS | high polyreactivity |
| QVQLVESGGGLVQAGGSLRLSCAASGRTFDRNAMGWYRQAPGKERELVAAISRGGTTYYADSVKGRFTISRDNAKNTVYLQMNSLKPEDTAVYYCARVGRYRYEWGQGTQVTVSS | high polyreactivity |
| QVQLVESGGGLVQAGGSLRLSCAASGSILIYNAMGWYRQAPGKERELVAGISRRGASTYYADSVKGRFTISRDNAKNTVYLQMNSLKPEDTAVYYCAALGKYIVAWAGDYWGQGTQVTVSS | low polyreactivity |
| QVQLVESGGGLVQAGGSLRLSCAASGSTLYYNAMGWYRQAPGKERELVAAITSGGSTSYADSVKGRFTISRDNAKNTVYLQMNSLKPEDTAVSSCAAVFYRRFDYWGQGTQVTVSS | low polyreactivity |
| QVQLVESGGGLVQAGGSLRLSCAASGIIFIKYAMGWYRQAPGKERELVAAITSGGSTHYADSVKGRFTISRDNAKNTVYLQMNSLKPEETAVYYCNADILRHVAYFKDRYQAGSYWGQGTQVTVSS | low polyreactivity |
| QVQLVESGGGLVQAGGSLRLSCAASGIIFRTYAMGCYRQAPGKERELVAAITGSGGITYYADSVKGRFTISRDNAKNTVYLQMNSLKPEDTAVYYCAARGTRDGVQRYGYWGQGTQVTVSS | high polyreactivity |
| QVQLQECGGGLEQAGGSLRLSCAASGTFSNSVKWLYCQARGKEREFVATIGVGGSTNYADSVKGRFTISRDNAKNTVYLQMNSLKPEDTAVYHCAAYGAASNFHYYRGQGTQVTVSS | low polyreactivity |
| QVQLVESGGGLVQAGGSLRLSCAASGFISFAYAMAWYRQAPGKERELVAGISRSGDSTYYADSVKGRFTISRDNAKNTVYLQMNSLKPEDTAVYYCAARQVVWFDYTTAQVGSYKVNYWGQGTQVTVSS | low polyreactivity |
